Measurements taken from patent publication US20180207294A1, “NON-ALCOHOLIC FATTY LIVER REGULATING FACTOR 14-3-3 PROTEIN” (Korea University Research and Business Foundation, priority 2015, published 2018).

Tests used:
PPARγ2 deletion mutants [1] = biological target: T1, PPARγ2 deletion mutants (Homo sapiens, UniProt P37231); assay: GST-pull down assay with PPARγ2 deletion mutants (HEK-293T); type: binding; settings: FIG. 3B, 3C
T1 construct: expressed in transfected cells; host or cells: HEK-293T
T1 sequence (P37231 1-310): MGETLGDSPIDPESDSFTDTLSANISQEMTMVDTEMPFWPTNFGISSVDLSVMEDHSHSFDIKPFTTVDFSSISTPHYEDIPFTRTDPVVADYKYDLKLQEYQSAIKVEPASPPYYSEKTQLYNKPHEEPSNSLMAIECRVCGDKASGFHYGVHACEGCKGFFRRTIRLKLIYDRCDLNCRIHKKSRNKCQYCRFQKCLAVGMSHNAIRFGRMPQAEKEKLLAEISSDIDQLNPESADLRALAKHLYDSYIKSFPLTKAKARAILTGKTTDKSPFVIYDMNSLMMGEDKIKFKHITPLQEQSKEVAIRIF
Protocol: (§1) The PPARγ2 protein has been reported to consist of an activation function 1 (AF-1, amino acids 1-138) domain, a DNA-binding domain (DBD, amino acids 139-203), a hinge region (amino acids 204-310), and an activation function 2 (AF-2, amino acids 311-505) domain (see FIG. 3A). Thus, GST-pull down assay was conducted to verify which domain part of PPARγ2 was bound to 14-3-3β and 14-3-3γ.
(§2) HEK-293T cells were seeded in a 100 mm plate at a density of 2×10^6 cells per each well, and then transfected with Flag-PPARγ2 (1-505) DNA (4 μg), Flag-PPARγ2 (1-310) DNA (4 μg), Flag-PPARγ2 (139-505) DNA (4 μg), and mGST-14-3-3β (4 μg) or mGST-14-3-3γ (4 μg) using an E-fection plus reagent (Lugen). For Flag-PPARγ2 (1-310) DNA and Flag-PPARγ2 (139-505) DNA, DNA fragments amplified through polymerase chain reaction (PCR) were cloned into a pCMV-3Tag-1 vector using restriction enzymes Xhol and Apal. A ratio of DNA to the E-fection plus reagent was 1:2, and this method was performed according to a manufacturer's manual. The corresponding cells were washed with ice-cold PBS and lysed using 500 μl/well of a lysis buffer (150 mM NaCl, 1 mM EDTA, 1% Nonidet P-40, 5% glycerol, 25 mM tris-HCl, pH 7.5, protease inhibitor added), and the lysed cells were centrifuged at 10,000×g and 4° C. for 10 minutes to extract proteins. Thereafter, 1,000 μg of the proteins was reacted with 20 μl of glutathione Sepharose 4B beads (GE Healthcare, Buckinghamshire, UK) for 6 hours, and then washing of the beads with 1 ml of ice-cold PBS was repeated 5 times, and the beads were boiled at 100° C. for 10 minutes, followed by 10% SDS-PAGE gel separation and western blotting. A ratio of GST antibodies (Santa Cruz) to Flag antibodies (Santa Cruz) was 1:3000. The detection of each protein was performed using West Pico ECL (Thermo scientific, Rockford, Ill.) and identified in a darkroom.

PPARγ2 deletion mutants [2] = biological target: T2, PPARγ2 deletion mutants (Homo sapiens, UniProt P37231); assay: as above; type: binding; settings: FIG. 3B, 3C; remark: listed apart in the source
T2 construct: expressed in transfected cells; host or cells: HEK-293T
T2 sequence (P37231 139-505): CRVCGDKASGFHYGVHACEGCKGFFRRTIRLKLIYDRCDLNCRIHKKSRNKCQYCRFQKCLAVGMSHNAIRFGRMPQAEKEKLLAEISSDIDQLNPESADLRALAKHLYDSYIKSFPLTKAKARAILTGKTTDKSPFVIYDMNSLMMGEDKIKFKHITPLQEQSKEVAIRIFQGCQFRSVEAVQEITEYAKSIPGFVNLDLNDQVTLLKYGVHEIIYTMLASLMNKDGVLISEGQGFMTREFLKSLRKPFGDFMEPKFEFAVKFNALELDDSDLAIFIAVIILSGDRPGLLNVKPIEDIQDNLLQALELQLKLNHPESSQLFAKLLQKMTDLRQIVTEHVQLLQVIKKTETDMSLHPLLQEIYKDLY
Protocol: as §1, §2

HepG2 cells = assay: Oil Red-O lipid accumulation, HepG2 cells; type: cell-based; settings: 14-3-3 overexpression, 200 μM oleic acid 72 hours, FIG. 9B
Protocol: HepG2 cells and primary mouse hepatocytes were separately seeded in a 6-well plate at a density of 4×10^5 cells per each well, and then transfected with GFP-14-3-3β DNA (1 μg) or GFP-14-3-3γ DNA (1 μg) and si-14-3-3β (10 μM, Santa Cruz) or si-14-3-3γ (10 μM, Santa Cruz) using an E-fection plus reagent (Lugen). A ratio of DNA to the E-fection plus reagent was 1:2, and this method was performed according to a manufacturer's manual. […] The stained cells were bleached with 1 ml of isopropanol and analyzed at a wavelength of 550 nm using a DU530 spectrophotometer (Beckman Instruments, Palo Alto, Calif.).

PPAR-RXR complex = biological target: T3, PPAR-RXR complex (Homo sapiens, UniProt P37231); assay: Formation of PPAR-RXR complex under 14-3-3 overexpression; type: binding; settings: overexpression of 14-3-3β and 14-3-3γ; FIG. 8C
T3 sequence (P37231 1-505): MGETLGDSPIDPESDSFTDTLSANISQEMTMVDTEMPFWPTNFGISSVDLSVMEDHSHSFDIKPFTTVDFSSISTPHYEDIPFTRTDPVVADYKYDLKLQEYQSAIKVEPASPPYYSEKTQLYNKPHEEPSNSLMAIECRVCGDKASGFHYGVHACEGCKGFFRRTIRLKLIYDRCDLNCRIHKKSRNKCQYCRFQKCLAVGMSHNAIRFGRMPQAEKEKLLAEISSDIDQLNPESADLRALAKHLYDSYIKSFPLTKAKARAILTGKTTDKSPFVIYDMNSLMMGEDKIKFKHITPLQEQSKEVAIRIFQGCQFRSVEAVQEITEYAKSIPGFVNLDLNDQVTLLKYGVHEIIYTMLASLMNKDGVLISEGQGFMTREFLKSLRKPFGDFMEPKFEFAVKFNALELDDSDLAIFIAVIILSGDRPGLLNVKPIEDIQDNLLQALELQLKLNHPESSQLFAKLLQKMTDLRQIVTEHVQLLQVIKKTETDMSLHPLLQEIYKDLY
T3 sequence (P19793 1-462 partner): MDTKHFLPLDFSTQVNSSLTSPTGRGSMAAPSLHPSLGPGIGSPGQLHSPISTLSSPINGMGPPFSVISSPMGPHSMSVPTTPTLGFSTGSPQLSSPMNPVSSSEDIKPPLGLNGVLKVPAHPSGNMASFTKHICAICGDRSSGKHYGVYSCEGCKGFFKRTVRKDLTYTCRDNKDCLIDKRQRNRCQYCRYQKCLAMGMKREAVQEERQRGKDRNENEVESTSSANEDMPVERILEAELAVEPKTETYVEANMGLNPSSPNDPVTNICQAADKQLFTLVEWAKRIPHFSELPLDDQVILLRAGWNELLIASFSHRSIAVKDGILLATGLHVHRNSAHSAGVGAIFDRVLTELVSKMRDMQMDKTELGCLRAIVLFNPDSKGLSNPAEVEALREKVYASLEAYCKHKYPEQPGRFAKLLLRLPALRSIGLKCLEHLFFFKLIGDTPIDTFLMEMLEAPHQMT

Substance	binding to PPARγ2 deletion mutant (1-310) (PPARγ2 deletion mutants [1])	binding to PPARγ2 deletion mutant (139-505) (PPARγ2 deletion mutants [2])	lipid accumulation by oleic acid (Oil Red-O) (HepG2 cells)	formation of the PPAR-RXR complex (PPAR-RXR complex)
14-3-3γ: 14-3-3 isoform protein, overexpressed by DNA transfection; regulating factor that decreases transcriptional activity of PPARγ2	bound	bound	reduced lipid accumulation	did not affect the formation of the PPAR-RXR complex
14-3-3β: 14-3-3 isoform protein, overexpressed by DNA transfection; regulating factor that increases transcriptional activity of PPARγ2	bound	bound	increased lipid accumulation	did not affect the formation of the PPAR-RXR complex
